B1: IMM20190 (antibody, V domains shown)
VH: EVQLVESGGGLVQPGGSLRLSCSASGFTVSSNYMSWVRQAPRKGLEWVSVIYAGGSTFYADSVKGRFTISRDNSKNTLLLQMNSLRAEDTAVYYCARDRGGYLDYWGQGTLVTVSS
VL: DIQMTQSPSSLSASVGDRVTITCRASQGISNYLAWYQQKPGKVPKLLIYAASTLQSGVPSRFSGSGSGTDFTLTISSLQPEDVATYYCQKYNSAPGLTFGGGTKVEIK
B2: IMM20190 Fab (Fab, V domains shown)
VH: EVQLVESGGGLVQPGGSLRLSCSASGFTVSSNYMSWVRQAPRKGLEWVSVIYAGGSTFYADSVKGRFTISRDNSKNTLLLQMNSLRAEDTAVYYCARDRGGYLDYWGQGTLVTVSS
VL: DIQMTQSPSSLSASVGDRVTITCRASQGISNYLAWYQQKPGKVPKLLIYAASTLQSGVPSRFSGSGSGTDFTLTISSLQPEDVATYYCQKYNSAPGLTFGGGTKVEIK
B3: IMM20184 Fab (Fab, V domains shown)
VH: EVQLVESGGGLVQPGGSLRLSCSASGFTFSSFWMSWVRQAPGKGLEWVATIREDGSEKYYVDSVKGRFSISRDNAKNSLYLQMNSLRAEDTAVYYCARSKWLRGSFDYWGQGTLVTVSS
VL: NFMLTQPHSVSESPGKTVTISCTRRSGSIASNYVQWYQQRPGSAPTTVIYEDNQRPSGVPDRFSGSIDSSSNSASLTISGLQTEDEADYYCQSYDSSNPPGASWVFGGGTKLTVL
B4: IMM20184 (antibody, V domains shown)
VH: EVQLVESGGGLVQPGGSLRLSCSASGFTFSSFWMSWVRQAPGKGLEWVATIREDGSEKYYVDSVKGRFSISRDNAKNSLYLQMNSLRAEDTAVYYCARSKWLRGSFDYWGQGTLVTVSS
VL: NFMLTQPHSVSESPGKTVTISCTRRSGSIASNYVQWYQQRPGSAPTTVIYEDNQRPSGVPDRFSGSIDSSSNSASLTISGLQTEDEADYYCQSYDSSNPPGASWVFGGGTKLTVL
B5: IMM20253 (antibody, V domains shown)
VH: QVQLVESGGGVVQPGRSLRLSCTASGFTFSTYGMHWVRQAPGKGLEWVAVISYDGSSKHYAESVKGRFTISRDNSNNTLYLQMNRLRAEDTAVYYCARDGQPPGWGNYFDYWGQGTLVTVAS
VL: SYVLTQPPSVSVAPGKTARITCGGNGIGSKSVYWYQQKPGQAPEVVVYDDSDRPSGIPERFSGSNSGNTATLTISRVEAGDEADYYCQVWDSSSDPWVFGGGTKLTVL
B6: IMM20253 Fab (Fab, V domains shown)
VH: QVQLVESGGGVVQPGRSLRLSCTASGFTFSTYGMHWVRQAPGKGLEWVAVISYDGSSKHYAESVKGRFTISRDNSNNTLYLQMNRLRAEDTAVYYCARDGQPPGWGNYFDYWGQGTLVTVAS
VL: SYVLTQPPSVSVAPGKTARITCGGNGIGSKSVYWYQQKPGQAPEVVVYDDSDRPSGIPERFSGSNSGNTATLTISRVEAGDEADYYCQVWDSSSDPWVFGGGTKLTVL

Columns and labels:
[1] = biological target: T1, soluble RBD of SARS-CoV-2 S protein (REF / Wuhan-1 variant) (SARS-CoV-2, UniProt P0DTC2); experiment: SPR
[2] = biological target: T2, SARS-CoV-2 S protein trimer (Trimer) (SARS-CoV-2, Wuhan/reference, stabilised); experiment: SPR
[3] = biological target: RBD (Wuhan) expressed on the surface of HEK-293T cells (SARS-CoV-2, Wuhan, UniProt P0DTC2); experiment: flow cytometry on cells
[4] = biological target: T2, SARS-CoV-2 S protein trimer (Trimer); experiment: cryo-EM structure
[5] = biological target: T1, soluble RBD of SARS-CoV-2 S protein …; experiment: ELISA
[6] = biological target: RBD of SARS-CoV-2 S protein, Alpha (UK) variant (SARS-CoV-2, Alpha (B.1.1.7, UK) variant, strain); experiment: ELISA
[7] = biological target: RBD of SARS-CoV-2 S protein, Beta (SA) variant (SARS-CoV-2, Beta (B.1.351, SA), strain); experiment: ELISA

| Binder | kon [2] [M⁻¹ s⁻¹] | stoichiometry N [4] | fold faster on-rate to RBD than to Trimer [1] [fold] | also measured |
| --- | --- | --- | --- | --- |
| B1 | > 29500 | – | – | binding result [1]: binds; binding result [3]: binds |
| B2 | – | 3 Fab:Trimer | – | – |
| B3 | – | 3 Fab:Trimer | – | – |
| B4 | > 29500 | – | 17 | koff [1]: 0.0013 s⁻¹; koff [2]: 0.00023 s⁻¹ |
| B5 | > 29500 | – | 19 | percent inhibition of ACE2 binding [5]: ≤ 40%; percent inhibition of ACE2 binding [6]: ≤ 40%; percent inhibition of ACE2 binding [7]: ≤ 40% |
| B6 | – | 1 Fab:Trimer | – | – |

Reference: paper doi:10.1101/2021.10.18.464900 (bioRxiv, 2021)
